The values that follow come from the supplement of paper PMC10598134.

This data set can be described thus: collision cross section of modified peptide (TIMS, N2, iRT-aligned); higher = larger / more extended gas-phase ion. Put shortly:
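Synthetic peptide pools (~100 fmol/µL in 2% acetonitrile/0.1% formic acid, iRT standard spiked 1:40) were separated on a 120-min nanoflow C18 gradient at 60 °C. They were analysed on a timsTOF Pro/HT (dda-PASEF, nitrogen, ~2.4 mbar) and identified with MaxQuant. 1/K0 was calibrated with three reference ions and aligned run-wise to the median iRT peptide deviation. Collision cross section came from the Mason-Schamp equation, averaging 1–3 technical replicates of the most abundant feature per charge state.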

Where [1] appears, read: charge state: 2, modification: Formyl.
Where [2] appears, read: charge state: 2, modification: Methyl (K).
[3] abbreviates: charge state: 2, modification: GlyGly (K).
The mark [4] stands for this setting: charge state: 3, modification: GlyGly (K).
Where [5] appears, read: charge state: 2, modification: Trimethyl (K).
Where [6] appears, read: charge state: 3, modification: Trimethyl (K).
[7] abbreviates: charge state: 2, modification: Acetyl (K).
Where [8] appears, read: charge state: 3, modification: Acetyl (K).
The mark [9] stands for this setting: charge state: 2, modification: Succinyl.
The mark [10] stands for this setting: charge state: 3, modification: Methyl (K).
The mark [11] stands for this setting: charge state: 2, modification: Malonyl.
The mark [12] stands for this setting: charge state: 2, modification: Butyryl.
Setting [13] is: charge state: 3, modification: Butyryl.
[14] abbreviates: charge state: 2, modification: Hydroxyproline.
[15] abbreviates: charge state: 2, modification: Methyl (R).
[16] abbreviates: charge state: 3, modification: Methyl (R).
[17] abbreviates: charge state: 3, modification: Succinyl.
[18] abbreviates: charge state: 2, modification: Crotonyl.
Setting [19] is: charge state: 2, modification: Dimethyl (K).
The mark [20] stands for this setting: charge state: 2, modification: Phospho (Y).
Setting [21] is: charge state: 2, modification: Biotin.
[22] abbreviates: charge state: 3, modification: Formyl.

± gives the standard deviation.

Take LLEQKTQESQK [_LLEQK(Formyl)TQESQK_]: the collision cross section under setting [1] came out at 386.78 ± 0.55 Å².
As to “FVDSKVGEFSGANK [_FVDSK(Methyl (K))VGEFSGANK_]”, the collision cross section under setting [2] is listed as 434.66 Å².
“VLDSGAPIKIPVGPETLGR [_VLDSGAPIK(GlyGly (K))IPVGPETLGR_]”: the collision cross section is 467.11 ± 1.6 Å² under setting [3] and 510.19 ± 1.1 Å² under setting [4].
The corresponding values for “LQAAYAGDKADDIQK [_LQAAYAGDK(GlyGly (K))ADDIQK_]” are 455.93 ± 1.6 Å² and 505.34 ± 0.35 Å².
Consider “SEASSEFAKK [_SEASSEFAK(Trimethyl (K))K_]”, for which the collision cross section reads like this: under setting [5], 361.14 ± 0.6 Å²; under setting [6], 431.4 ± 4.5 Å².
On to SPDEAYAIAKK [_SPDEAYAIAK(Acetyl (K))K_], for which the collision cross section amounted to 369.21 ± 0.94 Å² under setting [7] and 447.3 ± 0.6 Å² under setting [8].
On to “LFVGGIKEDTEEHHLR [_LFVGGIK(GlyGly (K))EDTEEHHLR_]”, for which the collision cross section runs as follows: under setting [3], 499.18 Å²; under setting [4], 544.61 ± 1.1 Å².
Regarding “DKALPLEAEVAPVK [_DK(Succinyl)ALPLEAEVAPVK_]”, the collision cross section under setting [9] was determined as 421.55 ± 0.36 Å².
For “ITLSKHQNVQLPR [_ITLSK(Methyl (K))HQNVQLPR_]”, the collision cross section by setting is: under setting [2], 432.38 Å²; under setting [10], 510.25 ± 21 Å².
“DDSFLGKLGGTLAR [_DDSFLGK(Acetyl (K))LGGTLAR_]”: the collision cross section stood at 410.51 ± 1.7 Å² under setting [7] and 489.73 Å² under setting [8].
In turn, SPDEAYAIAKK [_SPDEAYAIAK(Formyl)K_] yielded a collision cross section under setting [1] of 364.33 ± 1 Å².
In turn, “DYSSGFGGKYGVQADR [_DYSSGFGGK(Malonyl)YGVQADR_]” displayed a collision cross section under setting [11] of 435.88 ± 0.59 Å².
“GETASKLQSEISR [_GETASK(Butyryl)LQSEISR_]”: the collision cross section runs as follows: under setting [12], 390.84 ± 0.85 Å²; under setting [13], 467.14 ± 2.9 Å².
Turning to “ANEKTESSSAQQVAVSR [_ANEK(Methyl (K))TESSSAQQVAVSR_]”, the collision cross section was 440.42 Å² under setting [2] and 486.23 ± 1.8 Å² under setting [10].
Sequence IQTKAGEATVK [_IQTK(Malonyl)AGEATVK_] registered a collision cross section under setting [11] of 364.75 ± 0.62 Å².
Take “SPSDSGYSYETIGKTTK [_SPSDSGYSYETIGK(GlyGly (K))TTK_]”: the collision cross section under setting [3] was found to be 483.23 ± 1.5 Å² and the collision cross section under setting [4] amounted to 532.2 ± 3.5 Å².
Turning to “VPQAQPTKPALK [_VPQAQPT(HexNAc (ST))KPALK_]”, the collision cross section is, setting by setting: (charge state: 2, modification: HexNAc (ST)) 409.35 ± 0.62 Å²; (charge state: 3, modification: HexNAc (ST)) 481.8 ± 0.17 Å².
Consider “TVQGPPGEPGR [_TVQGPPGEP(Hydroxyproline)GR_]”, for which the collision cross section under setting [14] is 345.67 ± 0.89 Å².
In the case of IISSIEQKEENK [_IISSIEQK(Butyryl)EENK_], the collision cross section reads like this: under setting [12], 408.13 ± 0.85 Å²; under setting [13], 479 Å².
For “DFAFYNPRLQGK [_DFAFYNPR(Methyl (R))LQGK_]”, the collision cross section is recorded as 413.14 ± 0.67 Å² under setting [15] and 469.16 ± 2.2 Å² under setting [16].
On to SEASSEFAKK [_SEASSEFAK(Formyl)K_], for which, under setting [1], the collision cross section came out at 345.37 ± 1.6 Å².
Consider SSFAYKDQNENR [_SSFAYK(Succinyl)DQNENR_], for which the collision cross section was found to be 400.73 ± 0.25 Å² under setting [9] and 453.96 Å² under setting [17].
“LTEKELAEAASK [_LTEK(Methyl (K))ELAEAASK_]” showed a collision cross section under setting [2] of 392.99 ± 1 Å² and a collision cross section under setting [10] of 445.12 ± 4.9 Å².
Consider “GTITVSAQELKDNR [_GTITVSAQELK(Malonyl)DNR_]”, for which, under setting [11], the collision cross section came to 419.75 ± 0.051 Å².
In turn, ASEALLKQLK [_ASEALLK(Crotonyl)QLK_] came in with a collision cross section under setting [18] of 379.57 ± 1.1 Å².
Take KFGVLSDNFK [_K(Dimethyl (K))FGVLSDNFK_]: under setting [19], the collision cross section turned out to be 367.27 ± 1.5 Å².
Consider “GHPGPPGPPGEQGLPGLAGK [_GHPGPPGPP(Hydroxyproline)GEQGLPGLAGK_]”, for which the collision cross section under setting [14] was found to be 440.72 ± 0.83 Å² and the collision cross section (charge state: 3, modification: Hydroxyproline) was found to be 495.73 ± 18 Å².
Take “PASGAGAGAGAGKR [_PASGAGAGAGAGK(Succinyl)R_]”: the collision cross section is 354.83 ± 0.23 Å² under setting [9] and 462.42 ± 2 Å² under setting [17].
“LNAIYQNNLTK [_LNAIY(Phospho (Y))QNNLTK_]” displayed a collision cross section under setting [20] of 390.25 ± 0.67 Å².
For “GGPGSTLSFVGKR [_GGPGSTLSFVGK(hydroxyisobutyryl)R_]”, the collision cross section (charge state: 2, modification: hydroxyisobutyryl) stood at 388.57 ± 0.81 Å².
Under setting [21], “VYIASSSGSTAIKK [_VYIASSSGSTAIK(Biotin)K_]” registered a collision cross section of 429.83 Å².
In the case of “VGLQVVAVKAPGFGDNR [_VGLQVVAVK(Butyryl)APGFGDNR_]”, the collision cross section runs as follows: under setting [12], 450.45 ± 0.52 Å²; under setting [13], 500.38 ± 1.9 Å².
Take GVQYLNEIK [_GVQY(Phospho (Y))LNEIK_]: the collision cross section under setting [20] is 357.38 ± 0.065 Å².
Consider “DLSTVEALQNLKNLK [_DLSTVEALQNLK(Trimethyl (K))NLK_]”, for which the collision cross section is, setting by setting: under setting [5], 478.82 ± 1.1 Å²; under setting [6], 501.71 ± 2.5 Å².
The sequence VGEFSGANKEK [_VGEFSGANK(Butyryl)EK_] came in with a collision cross section under setting [12] of 369.78 ± 1.3 Å².
TPNLYIYSKK [_TPNLYIYSK(Propionyl)K_] displayed a collision cross section (charge state: 2, modification: Propionyl) of 384.03 Å².
Sequence TLQKQSVVYGGK [_TLQK(Malonyl)QSVVYGGK_] had a collision cross section under setting [11] of 395.45 ± 1.1 Å².
“PASGAGAGAGAGKR [_PASGAGAGAGAGK(Biotin)R_]”: the collision cross section is, setting by setting: under setting [21], 377.47 Å²; (charge state: 3, modification: Biotin) 490.64 Å².
Sequence LQEKVESAQSEQK [_LQEK(Formyl)VESAQSEQK_] showed a collision cross section under setting [1] of 410.52 ± 1.2 Å² and a collision cross section under setting [22] of 496.47 ± 0.53 Å².
Under setting [9], ISALQGKLSK [_ISALQGK(Succinyl)LSK_] showed a collision cross section of 354.02 ± 1.3 Å².
For the sequence “GGGDRGGFGPGK [_GGGDR(Methyl (R))GGFGPGK_]”, the collision cross section reads like this: under setting [15], 341.42 ± 0.86 Å²; under setting [16], 412.06 ± 3 Å².
As for “GTVPDDAVEALADSLGKK [_GTVPDDAVEALADSLGK(Butyryl)K_]”, the collision cross section came to 458.53 ± 0.36 Å² under setting [12] and 534.24 ± 1.4 Å² under setting [13].
“FDDTNPEKEEAK [_FDDTNPEK(Dimethyl (K))EEAK_]”: the collision cross section under setting [19] worked out at 399.09 ± 0.55 Å² and the collision cross section (charge state: 3, modification: Dimethyl (K)) came out at 487.33 ± 2.2 Å².
Sequence “GTITVSAQELKDNR [_GTITVSAQELK(Succinyl)DNR_]” registered a collision cross section under setting [9] of 421.79 ± 0.53 Å² and a collision cross section under setting [17] of 480.4 ± 2.5 Å².
With “DAIHFYNKSLAEHR [_DAIHFYNK(Methyl (K))SLAEHR_]”, the collision cross section reads like this: under setting [2], 441.67 Å²; under setting [10], 502.11 ± 2.1 Å².
In the case of FYTEDSPGLK [_FY(Phospho (Y))TEDSPGLK_], the collision cross section under setting [20] turned out to be 366.92 ± 0.064 Å².
As for “LEQVEKELLR [_LEQVEK(Trimethyl (K))ELLR_]”, the collision cross section is, setting by setting: under setting [5], 387.44 ± 0.62 Å²; under setting [6], 446.8 ± 1.8 Å².
For the sequence “GEVGAGAGPGAQAGPSAKR [_GEVGAGAGPGAQAGPSAK(Formyl)R_]”, the collision cross section runs as follows: under setting [1], 415.62 ± 0.18 Å²; under setting [22], 470.58 ± 2.9 Å².
As to “ANEKTESSSAQQVAVSR [_ANEK(GlyGly (K))TESSSAQQVAVSR_]”, the collision cross section by setting is: under setting [3], 467.32 ± 0.84 Å²; under setting [4], 498.93 ± 1.1 Å².
Turning to LTSLNVKYNNDK [_LTSLNVK(Butyryl)YNNDK_], the collision cross section under setting [12] stood at 414.27 ± 0.78 Å².
“TPSSFRQPFTPTSR [_TPSSFR(Citrullination (R))QPFTPTSR_]” yielded a collision cross section (charge state: 3, modification: Citrullination (R)) of 499.72 Å².
As to FDDTNPEKEEAK [_FDDTNPEK(Formyl)EEAK_], the collision cross section reads like this: under setting [1], 390.88 ± 0.55 Å²; under setting [22], 435.1 Å².
On to “SLKLNTAEDAK [_SLK(Gluratylation)LNTAEDAK_]”, for which the collision cross section (charge state: 2, modification: Glutarylation) is reported as 381.67 ± 0.53 Å².
For the sequence LAEEENKAK [_LAEEENK(Methyl (K))AK_], the collision cross section reads like this: under setting [2], 347.67 ± 0.66 Å²; under setting [10], 422.11 Å².
Regarding “GADFLVTEVENGGSLGSKK [_GADFLVTEVENGGSLGSK(Butyryl)K_]”, the collision cross section turned out to be 476.08 ± 1.1 Å² under setting [12] and 551.35 Å² under setting [13].
“SGNLTEDDKHNNAK [_SGNLTEDDK(Crotonyl)HNNAK_]” yielded a collision cross section under setting [18] of 426.1 Å² and a collision cross section (charge state: 3, modification: Crotonyl) of 469.87 ± 1.6 Å².
Consider “VTLEVGKVIQQGR [_VTLEVGK(Butyryl)VIQQGR_]”, for which the collision cross section came to 412.79 ± 0.23 Å² under setting [12] and 483.04 ± 1.9 Å² under setting [13].
